Test results as given in patent US20150197564A1 (Regeneron, published 2015).

Key:
mANGPTL3(17-240)-His [1] = biological target: T1, mANGPTL3(17-240)-His (Mus musculus, UniProt Q9R182 17-240); test: cell-based or functional assay
T1 sequence: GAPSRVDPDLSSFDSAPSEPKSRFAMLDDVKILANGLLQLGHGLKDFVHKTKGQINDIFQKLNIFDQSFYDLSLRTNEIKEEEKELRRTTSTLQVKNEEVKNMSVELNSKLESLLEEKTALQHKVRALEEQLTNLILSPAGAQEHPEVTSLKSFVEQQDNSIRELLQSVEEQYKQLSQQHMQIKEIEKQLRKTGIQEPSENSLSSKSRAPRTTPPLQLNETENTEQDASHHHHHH

hANGPTL3(17-460)-His = biological target: T2, hANGPTL3(17-460)-His (human, UniProt Q9Y5C1 17-460); test: SPR Biacore, antigen captured, 37C, pH 7.4, HBS-EP
T2 construct: Bought protein (R&D Systems); also called full-length mature human ANGPTL3 with a C-terminal decahistidine tag; Human ANGPTL3 (17-460)-His
T2 sequence: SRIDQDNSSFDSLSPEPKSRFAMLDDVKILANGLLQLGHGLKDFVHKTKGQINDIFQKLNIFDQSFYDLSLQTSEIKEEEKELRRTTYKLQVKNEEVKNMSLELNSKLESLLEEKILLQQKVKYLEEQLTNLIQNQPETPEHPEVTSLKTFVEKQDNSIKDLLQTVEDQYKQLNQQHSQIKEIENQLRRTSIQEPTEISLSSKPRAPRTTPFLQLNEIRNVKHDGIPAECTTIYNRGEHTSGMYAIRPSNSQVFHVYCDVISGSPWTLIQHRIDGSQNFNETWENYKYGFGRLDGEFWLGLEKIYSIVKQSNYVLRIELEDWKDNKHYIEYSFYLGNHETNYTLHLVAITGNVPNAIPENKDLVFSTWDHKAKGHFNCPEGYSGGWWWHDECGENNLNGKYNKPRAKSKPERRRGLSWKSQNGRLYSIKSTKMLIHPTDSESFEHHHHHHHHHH

hANGPTL3(17-170)-His = biological target: T3, hANGPTL3(17-170)-His (human, UniProt Q9Y5C1 17-170); test: SPR Biacore, antigen captured, 37C, pH 7.4, HBS-EP
T3 construct: also called N-terminal coiled-coil domain of hANGPTL3 with a C-terminal hexahistidine tag; Human ANGPTL3 (17-170)-His
T3 sequence: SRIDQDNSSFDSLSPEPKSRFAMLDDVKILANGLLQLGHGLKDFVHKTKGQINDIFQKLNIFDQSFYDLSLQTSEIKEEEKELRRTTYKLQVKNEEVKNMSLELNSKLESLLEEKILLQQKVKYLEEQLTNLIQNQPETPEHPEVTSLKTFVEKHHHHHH

MfANGPTL3(17-170)-mmH = biological target: T4, MfANGPTL3(17-170)-mmH (Macaca fascicularis); test: SPR Biacore, antigen captured, 37C, pH 7.4, HBS-EP
T4 construct: also called N-terminal coiled-coil domain of ANGPTL3 from Macaca fascicularis with myc-myc-hexahistidine tag; Monkey ANGPTL3 (17-170)-mmH
T4 chain: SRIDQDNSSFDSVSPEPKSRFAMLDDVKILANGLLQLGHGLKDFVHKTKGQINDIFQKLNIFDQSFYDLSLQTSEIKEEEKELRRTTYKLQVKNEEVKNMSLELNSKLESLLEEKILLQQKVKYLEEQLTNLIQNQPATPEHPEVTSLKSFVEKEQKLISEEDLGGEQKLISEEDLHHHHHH

mANGPTL3(17-455)-His = biological target: T5, mANGPTL3(17-455)-His (Mus musculus, UniProt Q9R182 17-455); test: SPR Biacore, antigen captured, 37C, pH 7.4, HBS-EP
T5 construct: Bought protein (R&D Systems); also called full-length mature ANGPTL3 from Mus musculus with a C-terminal decahistidine tag
T5 sequence: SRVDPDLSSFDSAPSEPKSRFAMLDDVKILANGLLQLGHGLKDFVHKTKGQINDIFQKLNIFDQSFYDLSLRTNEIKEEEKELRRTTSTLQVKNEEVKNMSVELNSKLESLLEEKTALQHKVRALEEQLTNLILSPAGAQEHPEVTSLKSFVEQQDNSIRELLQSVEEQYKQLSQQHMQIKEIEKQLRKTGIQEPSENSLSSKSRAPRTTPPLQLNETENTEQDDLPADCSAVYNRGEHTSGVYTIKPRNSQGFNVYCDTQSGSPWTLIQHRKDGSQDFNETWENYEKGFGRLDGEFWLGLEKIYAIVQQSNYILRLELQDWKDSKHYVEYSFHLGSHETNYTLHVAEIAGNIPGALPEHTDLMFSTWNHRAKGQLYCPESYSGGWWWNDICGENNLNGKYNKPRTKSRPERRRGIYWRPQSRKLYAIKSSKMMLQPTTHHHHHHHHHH

mANGPTL3(17-240)-His [2] = biological target: T1, mANGPTL3(17-240)-His; test: SPR Biacore, antigen captured, 37C, pH 7.4, HBS-EP
rANGPTL3(17-240)-mmH = biological target: T6, rANGPTL3(17-240)-mmH (Rattus norvegicus); test: SPR Biacore, antigen captured, 37C, pH 7.4, HBS-EP
T6 construct: also called N-terminal coiled-coil domain of ANGPTL3 from Rattus norvegicus with myc-myc-hexahistidine tag
T6 chain: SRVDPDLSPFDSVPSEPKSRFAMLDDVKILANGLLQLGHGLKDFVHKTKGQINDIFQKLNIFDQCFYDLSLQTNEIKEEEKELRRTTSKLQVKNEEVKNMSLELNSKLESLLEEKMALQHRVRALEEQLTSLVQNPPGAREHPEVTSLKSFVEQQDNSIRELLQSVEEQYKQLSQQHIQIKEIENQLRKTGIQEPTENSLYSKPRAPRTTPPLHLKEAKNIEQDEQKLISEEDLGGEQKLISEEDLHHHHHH

B1: H4H1276S (antibody, IgG4, V domains shown)
VH: EVQLVESGGGVIQPGGSLRLSCAASGFTFDDYAMNWVRQGPGKGLEWVSAISGDGGSTYYADSVKGRFTISRDNSKNSLYLQMNSLRAEDTAFFYCAKDLRNTIFGVVIPDAFDIWGQGTMVTVSS
VL: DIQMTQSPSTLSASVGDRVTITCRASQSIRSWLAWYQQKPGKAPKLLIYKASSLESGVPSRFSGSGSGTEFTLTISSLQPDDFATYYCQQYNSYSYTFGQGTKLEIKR
For B1, the “IC50 (nM), LPL bioassay, 500 nM constant ANGPTL3” value (mANGPTL3(17-240)-His [1]) was 31 nM, the Kd (hANGPTL3(17-460)-His) was 1.29 nM and the koff (hANGPTL3(17-460)-His) was 0.000812 s⁻¹. The kon (hANGPTL3(17-460)-His) was 632000 M⁻¹ s⁻¹, the t1/2 (hANGPTL3(17-460)-His) was 14.2 min and the Kd (hANGPTL3(17-170)-His) was 1.52 nM. For the same binder, the koff (hANGPTL3(17-170)-His) was 0.00241 s⁻¹, the kon (hANGPTL3(17-170)-His) was 1.59e+06 M⁻¹ s⁻¹ and the t1/2 (hANGPTL3(17-170)-His) was 4.8 min. The Kd (MfANGPTL3(17-170)-mmH) was 0.625 nM, the koff (MfANGPTL3(17-170)-mmH) was 0.00117 s⁻¹ and the kon (MfANGPTL3(17-170)-mmH) was 1.87e+06 M⁻¹ s⁻¹. For the same binder, the t1/2 (MfANGPTL3(17-170)-mmH) was 9.9 min, the Kd (mANGPTL3(17-455)-His) was 0.408 nM and the koff (mANGPTL3(17-455)-His) was 0.000791 s⁻¹. For the same binder, the kon (mANGPTL3(17-455)-His) was 1.94e+06 M⁻¹ s⁻¹, the t1/2 (mANGPTL3(17-455)-His) was 14.6 min and the Kd (mANGPTL3(17-240)-His [2]) was 1.18 nM. It also gave a koff (mANGPTL3(17-240)-His [2]) of 0.000964 s⁻¹, a kon (mANGPTL3(17-240)-His [2]) of 819000 M⁻¹ s⁻¹ and a t1/2 (mANGPTL3(17-240)-His [2]) of 12 min. The Kd (rANGPTL3(17-240)-mmH) was 0.94 nM, the koff (rANGPTL3(17-240)-mmH) was 0.00193 s⁻¹ and the kon (rANGPTL3(17-240)-mmH) was 2.05e+06 M⁻¹ s⁻¹. The t1/2 (rANGPTL3(17-240)-mmH) was 6 min.
